Data taken from paper PMC10284694, “Genome expansion by a CRISPR trimmer-integrase”.

Columns and labels:
[1] = molecular target: Megasphaera NM10-related Cas1 (Megasphaera NM10-related); assay: cryo-EM structure; 50 µM Cas1, 50 µM Cas2/DEDDh and 12.5 µM prespacer or half-site DNA mixed, dialysed 2 h at room temperature, purified over Superose 6 Increase 10/300 GL; complexes bound to DNA
[2] = molecular target: Megasphaera NM10-related Cas2 and DEDDh fusion protein (Cas2/DEDDh) (Megasphaera NM10-related); assay: as above
[3] = molecular target: T1, Cas1 (type I-E);Cas2/DEDDh (natural Cas2-DEDDh fusion) (Megasphaera NM10-related;Megasphaera …, UniProt A0AA82WPF9;A0AA82WPG7 1-316;1-289, |); assay: cryo-EM structure (2.9 A); Cryo-EM sample buffer not in the material; DNA annealed in 20 mM HEPES pH 7.5, 25 mM KCl, 10 mM MgCl2; protein storage 20 mM HEPES pH 7.5, 500 mM KCl, 1 mM TCEP, 5% glycerol; details: protein: recombinant;recombinant; tags: 10xHis-MBP removed with TEV;10xHis-MBP removed with TEV; chain copies: 4;2; 23 bp duplex, 3' overhangs 15 nt on both strands (5 nt visible)
T1 sequence 1: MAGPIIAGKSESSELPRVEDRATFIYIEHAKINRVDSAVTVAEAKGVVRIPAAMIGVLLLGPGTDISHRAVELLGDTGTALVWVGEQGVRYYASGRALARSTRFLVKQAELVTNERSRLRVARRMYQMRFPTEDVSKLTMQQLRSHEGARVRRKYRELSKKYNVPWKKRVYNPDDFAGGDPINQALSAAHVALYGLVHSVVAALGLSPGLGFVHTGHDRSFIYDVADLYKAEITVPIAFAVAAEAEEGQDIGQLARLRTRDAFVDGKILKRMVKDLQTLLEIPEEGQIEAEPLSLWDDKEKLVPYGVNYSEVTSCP
T1 sequence 2: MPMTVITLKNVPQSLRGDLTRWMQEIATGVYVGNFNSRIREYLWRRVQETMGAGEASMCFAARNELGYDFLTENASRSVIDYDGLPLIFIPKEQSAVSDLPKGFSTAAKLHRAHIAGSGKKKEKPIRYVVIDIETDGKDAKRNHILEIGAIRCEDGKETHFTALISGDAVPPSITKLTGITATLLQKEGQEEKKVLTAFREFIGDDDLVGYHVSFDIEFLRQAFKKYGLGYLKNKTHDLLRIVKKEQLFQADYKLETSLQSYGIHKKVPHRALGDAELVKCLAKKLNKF

[4] = molecular target: T1, Cas1 (type I-E);Cas2/DEDDh (natural …); assay: cryo-EM structure (3.1 A); Cryo-EM sample buffer not in the material; DNA annealed in 20 mM HEPES pH 7.5, 25 mM KCl, 10 mM MgCl2; protein storage 20 mM HEPES pH 7.5, 500 mM KCl, 1 mM TCEP, 5% glycerol; details: protein: recombinant;recombinant; tags: 10xHis-MBP removed with TEV;10xHis-MBP removed with TEV; chain copies: 4;2; 23 bp duplex, 3' overhangs 15 nt on both strands before trimming

For Megasphaera NM10-related Cas1 (enzyme), the stoichiometry N [1] was 2.

With “Megasphaera NM10-related Cas2 and DEDDh fusion protein (Cas2/DEDDh) (enzyme)” the stoichiometry N [2] was 2.

B1: CryoEM prespacer, PAM-deficient (dsDNA)
DNA 1: ACTCATGATGCACAAGTGGTTGCGCGTGAACCCAGTTG
DNA 2: GCAACCACTTGTGCATCATGAGTGATGAAACCCAGTTG
modifications: phosphorothioate between nt 28 and 29 of each strand
B1: binds [3].

B2: CryoEM prespacer, TT PAM-containing (dsDNA)
DNA 1: ACTCATGATGCACAAGTGGTTGCGCGTGTTCCCAGTTG
DNA 2: GCAACCACTTGTGCATCATGAGTGATGAAACCCAGTTG
modifications: phosphorothioate between nt 33 and 34 of strand 1 and between nt 28 and 29 of strand 2
B2: binds [4].
